B1: myc-Syd-N2 (Syd^1-529) R492 [Drosophila] / HA-Rab2^Q65L [Drosophila] (parent)
chain 1: MMDNDDALLNNGGPQSGAETVYGTEDNNMVMSEKNEQVVSIVQQLAGSIYQEFERMINRYDEDVVKNLMPLLVNVLECLDASYRINQEQDVEVELLREDNEQLVTQYEREKSARKQSEQKLLEAEDLAEQENKELATRLESVESIVRMLELKHKNSLEHASRLEEREADLKKEYNKLHERYTELFKNHVDYMERTKMLMGSTHSQMSTASERMDVSRARLNPVARSSGPVSYGFASLENSVMLDTETICSVGSQSDDSGPPSLQNELDNLSGTLERGAATDALQQQHHATSPQSPDSSPVVPNVPTNVGRSTTKKEQRSDNNLYQELSFQDNEESEENEIVTGSWVHPGEYASSANDNYFGMGKEVENLIMENNELLATKNALNIVKDDLIVKVDELTGEVEIVREELNAMQQSRTKLRQRISELEDELKKAKEQVKQQNTEQEENDVPLAQRKRFTRVEMAMVLMERNQYKERLMELQEAVRLTEILRASRTVDNLDRKSKQSIWKYFSNLFTPSNRPTERVADGLGG
chain 2: MSYAYLFKYIIIGDTGVGKSCLLLQFTDKRFQPVHDLTIGVEFGARMITIDGKQIKLQIWDTAGLEAFRSITRSYYRGAAGALLVYDITRRETFNHLTTWLEDARQHSNSNMVIMLIGNKSDLDSRREVKKEEGEAFAREHGLVFMETSARTAANVEEAFINTAKEIYEKIQEGVFDINNEANGIKIGQQHSPTNPSLPGAGGAAGAANSGCC

Variants of: B1
Assay: Co-IP (anti-HA IP, anti-myc immunoblot quantification)
Conditions: with HA-Rab2^Q65L [Drosophila]; HEK cell lysates; single experiment 1 of 3 (solid line); P < 0.005 vs WT printed; parent: 17; read off a plot

response	Variant
11 a.u.	chain 1 V482A R483A L484A T485A E486A I487A R489A S491A R492A

Same assay, conditions: with HA-Rab2^Q65L [Drosophila]; HEK cell lysates; single experiment 2 of 3 (upper dashed line); P < 0.005 vs WT printed; parent: 17; read off a plot

response	Variant
6.8 a.u.	chain 1 V482A R483A L484A T485A E486A I487A R489A S491A R492A

Same assay, conditions: with HA-Rab2^Q65L [Drosophila]; HEK cell lysates; single experiment 3 of 3 (lower dashed line); P < 0.005 vs WT printed; parent: 17; read off a plot

response	Variant
4.7 a.u.	chain 1 V482A R483A L484A T485A E486A I487A R489A S491A R492A
